B1: SUN domain-containing protein 2 (Homo sapiens), Q9UH99 (parent)
chain: MSRRSQRLTRYSQGDDDGSSSSGGSSVAGSQSTLFKDSPLRTLKRKSSNMKRLSPAPQLGPSSDAHTSYYSESLVHESWFPPRSSLEELHGDANWGEDLRVRRRRGTGGSESSRASGLVGRKATEDFLGSSSGYSSEDDYVGYSDVDQQSSSSRLRSAVSRAGSLLWMVATSPGRLFRLLYWWAGTTWYRLTTAASLLDVFVLTRRFSSLKTFLWFLLPLLLLTCLTYGAWYFYPYGLQTFHPALVSWWAAKDSRRPDEGWEARDSSPHFQAEQRVMSRVHSLERRLEALAAEFSSNWQKEAMRLERLELRQGAPGQGGGGGLSHEDTLALLEGLVSRREAALKEDFRRETAARIQEELSALRAEHQQDSEDLFKKIVRASQESEARIQQLKSEWQSMTQESFQESSVKELRRLEDQLAGLQQELAALALKQSSVAEEVGLLPQQIQAVRDDVESQFPAWISQFLARGGGGRVGLLQREEMQAQLRELESKILTHVAEMQGKSAREAAASLSLTLQKEGVIGVTEEQVHHIVKQALQRYSEDRIGLADYALESGGASVISTRCSETYETKTALLSLFGIPLWYHSQSPRVILQPDVHPGNCWAFQGPQGFAVVRLSARIRPTAVTLEHVPKALSPNSTISSAPKDFAIFGFDEDLQQEGTLLGKFTYDQDGEPIQTFHFQAPTMATYQVVELRILTNWGHPEYTCIYRFRVHGEPAH

Variants of: B1
Conditions: with syne1_human SYNE1, Q8NF91

Row | Variant | effect of a mutation on the interaction
1 | I579E | disrupting interaction strength
2 | C705A | increasing interaction strength

Reference: IntAct's records for PubMed 33393904
